Results: patent publication US20250186604A1, “ANTI-PSMA ANTIBODY CONJUGATES” (ADC THERAPEUTICS SA, priority 2023, published 2025)

Biological target: Human PSMA (Prostate-Specific Membrane Antigen) (human) (UniProt Q04609)
Assay: ELISA, human PSMA coated on plate, anti-human-IgG-HRP detection

Human PSMA (Prostate-Specific Membrane Antigen) (human), sequence (Q04609 44-750 limits assumed): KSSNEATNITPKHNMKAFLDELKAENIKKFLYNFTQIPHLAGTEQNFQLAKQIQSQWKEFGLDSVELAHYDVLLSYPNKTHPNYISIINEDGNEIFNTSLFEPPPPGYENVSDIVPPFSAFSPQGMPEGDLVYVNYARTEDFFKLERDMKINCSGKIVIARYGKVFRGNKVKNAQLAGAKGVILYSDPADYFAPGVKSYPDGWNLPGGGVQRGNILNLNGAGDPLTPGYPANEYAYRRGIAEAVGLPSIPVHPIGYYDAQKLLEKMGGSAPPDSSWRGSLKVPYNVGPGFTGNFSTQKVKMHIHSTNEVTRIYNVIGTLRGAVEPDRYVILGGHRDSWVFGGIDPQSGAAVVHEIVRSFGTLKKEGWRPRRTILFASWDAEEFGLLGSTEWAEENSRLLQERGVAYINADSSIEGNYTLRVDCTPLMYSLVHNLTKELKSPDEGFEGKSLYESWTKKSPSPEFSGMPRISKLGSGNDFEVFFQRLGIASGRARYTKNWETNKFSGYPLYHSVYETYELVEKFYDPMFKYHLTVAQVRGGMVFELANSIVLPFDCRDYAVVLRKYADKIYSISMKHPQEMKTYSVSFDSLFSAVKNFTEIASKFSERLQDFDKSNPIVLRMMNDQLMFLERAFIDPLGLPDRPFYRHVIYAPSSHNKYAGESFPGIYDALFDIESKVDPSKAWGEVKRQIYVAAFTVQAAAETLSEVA

- EC50: 0.271 nM
Substance: J591 (antibody)
